{
  "source": "the nanobody polyreactivity screen of Harvey et al. (2022)",
  "data": [
    {"assay": "yeast display, Sf9 membrane polyspecificity reagent, FACS + sequencing; frameworks hold sequencing errors", "how_it_was_run": "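After 36–48 hours of galactose induction, yeast (Saccharomyces cerevisiae BJ5465) displaying a synthetic nanobody library were stained at 4 °C for 1 hour with 10% biotinylated, detergent-solubilized Sf9 membrane reagent. Streptavidin microbeads enriched the stained cells before FACS sorting into low and high (top ~1%) gates on anti-HA and streptavidin fluorescence. Each clone's polyreactivity label reflects its gate of origin.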", "values": [
      {"sequence": "QVQLVESGGGLVQAGGSLRLSCAASGRIFGQNVMGWYIQAPGKERELVAAITSAGRTYYADSVKGRFTISRDIAKNTVYLQMKSLKPEDTAVYYCAAYVRRGFDWGQGTQVTVSS", "polyreactivity (PSR sort gate)": "high polyreactivity"},
      {"sequence": "QVQLVESGGGLVQAGGSLRITCAASGYTFGAYSMGWYRQAPWKERELVAAITVRAGRTYYADSVKGRFTISRDNAKNTVYLQMNSLKPEDTAVYYCAADGYLLYVQHPNGRRYDYWGQGTQVTVSS", "polyreactivity (PSR sort gate)": "low polyreactivity"},
      {"sequence": "QVQLVDSGGGLVQAGGSLRLSCAASGNIICGYARGRNIQAPGKEREMVASISQRGGITYYADSVKGRFTISRDKAKNTVYLEMNSLKAEDTEVYYCAKRGTYGWYGAYDYWGEGTQVTVSS", "polyreactivity (PSR sort gate)": "low polyreactivity"},
      {"sequence": "QVQLVESGGGLVQAGGSLRLSCAASGFNFYCNAMGWYRQAPGKERELVATIRYRGGRTYYADSVKGRFTISRDNEKNTVYLQMNSLKPEDTAVYYCNTRSVYHRYDYDYWGQGTQVTVSS", "polyreactivity (PSR sort gate)": "high polyreactivity"},
      {"sequence": "EVQLVESGGGLVQPGGSLRLSCAASGYIYSRYRMGWYRQAPGKGREFVAAISGGSSTNYADSVKGRFTISRDNSKYTVYLQMNSLRAEDTAVYYCAAFKIDSDPRVYWGQGTQVTVSS", "polyreactivity (PSR sort gate)": "low polyreactivity"},
      {"sequence": "QVQLVESGGGLVQAGGSLRLSCAASGSISIGYTMGWYRQAPGKERELVATISWSGGNTYYADSVKGRFTISRDNAKNTVYLQMNSLKPEDTAVYYCAGRWYYYPLLYDYWGQGTQVTVSS", "polyreactivity (PSR sort gate)": "low polyreactivity"},
      {"sequence": "QVQLVESGGGLVQAGGSLRLSCAASGSIFVYNAMGWYRQAPGKEWELVAAISFSGGDTYYADSVKGRFTISRDNAKNTVYLQMNSLKPEDTAVYYCNVDNSEYEGDYWGQGTQVTVSS", "polyreactivity (PSR sort gate)": "low polyreactivity"},
      {"sequence": "QVQLVESGGGLVQAGGSLRISCAASGSTSTGMTWDGIDRRLGRKELVAGIRSAGSTNYADSVKGRFTISRDNAKNTVYLQMNSLKPEDTAGYYCAKDYRWVWRKYGYWGQGTQVTLSS", "polyreactivity (PSR sort gate)": "low polyreactivity"},
      {"sequence": "QVQLVESGGGLVQAGGSLRLSCAASGSIFDPNAMGWYRQAPGKERELVAVITWSSSSTYYADSVKGRFTISRDNAKNTVYLQMNSLKPEDTAVYYCAAVVQGTTVWWGYDYWGQGTLVTVSS", "polyreactivity (PSR sort gate)": "low polyreactivity"},
      {"sequence": "QVQLVESGGGLVQAGGSLRLSCAASGFTFRVNAMGWYRQAPGKERELVAAISSGGGITYYADSVKGRYTISRDNAKNTVYLQMNSLKPEDTAVYYCAARENRYLERDYWGQGTQVNVSS", "polyreactivity (PSR sort gate)": "low polyreactivity"},
      {"sequence": "QVQLVESGGGLVQSGGSLRLSCAASGINFLYYAMGWYIQAPGKERELVARINRSGGSTYYADSVKGRFTISRDNAKYTVYLQMNSLKPEDSAVYYCAADYLYRSPAYEHYYWGQGTQVTVSS", "polyreactivity (PSR sort gate)": "high polyreactivity"},
      {"sequence": "QVQLVESGGGLVQAGGSLRLSCAASGSIFSYYAMGWYRQATGKERELVAAITRGGTTYYAVCVKGRFTISRDNAKNTVYLQMNSLKPDDTAVYYCAVYYYSGTAGYRYGYWGQGTQVTVSS", "polyreactivity (PSR sort gate)": "high polyreactivity"},
      {"sequence": "QVQLVESGGGLVQAGGSLRLSCAASGSTVRRNTMGWYRQAPGKERELVAGISSSGGSTYYADSVKGRFTISRDNAKNTVYLQINSLKPEDTAVYYCAARFYVSYVGYNYWGQGTQVTVSS", "polyreactivity (PSR sort gate)": "high polyreactivity"},
      {"sequence": "QVQLVESGGGLVQAGGTLRLSCAASGRIFSKNAMGWYRQAPGKERELVARIRWTGGITYYADSVKGRFTISRDNAKNTVYLQMNSLKPEDTAVYYCAAGSYAGFAVIGYYYWGQGTQVTVSS", "polyreactivity (PSR sort gate)": "low polyreactivity"},
      {"sequence": "QVQLVESGGGLVQAGGSLRLSCAASGSTFDPNAMGWYRQAPGKERELVASITSRGGSTYYADSVKGRFTISRDNAKNTVYLQMNSLKPEDTAVYYCAAVGGATYSWNGYSWYAWHNYWGQGTQVTVSS", "polyreactivity (PSR sort gate)": "low polyreactivity"},
      {"sequence": "QDQLVESGGGLVQAGGSLRLSCAASGSTFYYNAMGLYRQAPGKEREVVARISRSGGSTYADSVKGRFTISRDNAKNTVYLQMNSLKPEDTAVYYCNADAYGTPEFTSYAVRYDYWGQGTQVTVSS", "polyreactivity (PSR sort gate)": "low polyreactivity"},
      {"sequence": "HVQLVDSGGGLVQAGGSLRLSCAASGYTFKYNTMGWYRQAPGKERDLVAAITRSGGSTYYADSVKGRFTISRDNAKNTVYLQMNSLKPEDTAVYYCAARAAYKQPVSFDYWGQGTQVTVSS", "polyreactivity (PSR sort gate)": "high polyreactivity"},
      {"sequence": "QVQLVESGGALVQAGGSLRLSCAYSGLTFYGNTMGWYRQAPGKERELDAAITYSGTRTYYADSVKGRFTISRDTAKNTVYLQMNSLKPEDTAVYYCNALSYANSIDTYDYWGQVTQVTVSS", "polyreactivity (PSR sort gate)": "high polyreactivity"},
      {"sequence": "QVQLVESGGGLVQAGCSLSLSCAASGITFRSYAKGWYRQAPGKERELVAAIRSGGSTSYADSVKGRFTISRDNAKYTVYLQMNSLKPEDTAVYYCAAGGYVPLPDITFWKFGYWGQGTQGTVSS", "polyreactivity (PSR sort gate)": "low polyreactivity"},
      {"sequence": "KVQLVESGGGLVQSGVSLRLSCAASGYTFEYNAMGWYIQAPGKEREFVSTITASGDSTYYAVSVKGRFTMSRDNAKNTVYFQMNSLKPEDTAVYYCAVDCAYLDDYSFTWDDYWGQGTQVTVSS", "polyreactivity (PSR sort gate)": "low polyreactivity"},
      {"sequence": "QVQLVESGGGLVQAGGSLRLSCAASGRTFNIYAMGWYRQAPGKERELVAAISKRGGTTYYADSVKGRFTISRDNAKNTVYLQMNSLKPEDTAVYYCAADRTNPYYGGMDYWGQGTQVTVSS", "polyreactivity (PSR sort gate)": "high polyreactivity"},
      {"sequence": "QVQLVESGGGLVQAGGSLRLSCAASGRTSVPYAMGWYRQAPGKERELVAAITSGGSTYYADSVKGRFTISRDNAKNTVYLQMNSQKPEDTAVYYCAASQPHSAPYTASYGSWGQGTQVTVSS", "polyreactivity (PSR sort gate)": "low polyreactivity"},
      {"sequence": "QVQLVESGGGLVQEGGSLRLSCAASGFIFRSYAMGWYRKAPGKERELVAAISSSGGSTYYADSVKGRFTISRDNAKNTVYLPMNSLKPEDTAVYYCAKGYQRGRDYWGQGTQVTVSS", "polyreactivity (PSR sort gate)": "high polyreactivity"},
      {"sequence": "QVQLVESGGGLVQAGGSLRLSCAASGSTFDIYVMGWYRQAPGKERELVAAISRVGNTSYADSVKGRFTISRDNAKNTVYLQMNSLKPEDTAVYYCAADAPSWYDRQYDYWGQGTQVTVSS", "polyreactivity (PSR sort gate)": "low polyreactivity"},
      {"sequence": "QVHLVESGGGLVQAGGSLRLSCAPSGSTFIRNAILWYRQAPGKDRELVAPISRSGSSTYYADSVKGRFTISRDNAKNTVYLQMNSLKPEDTAVYYCAAETDSRKARVLYDSWGQGTQVTVSS", "polyreactivity (PSR sort gate)": "high polyreactivity"},
      {"sequence": "QVQLVESGGGLVQAGGSLRLSCAASGLTFSRNAMGWYRQAPGKERELVAAINWRGGRTYYADSVKGRFIISRDNAKNTVYLQMNSLKPEDTAVYYCAADPANRCMYYWGQGTQVTVSS", "polyreactivity (PSR sort gate)": "high polyreactivity"},
      {"sequence": "QLQLVESGGGLVQAGGSLRLSCAASGSLFYVYAMGWYRAATGKERELVAAISDDGDTYYADSVKGRFTISRDHEKNTVYLQMNSLKPEDTEVYFCAAEGGANEENSSPEYDYWGLGTQVTVSS", "polyreactivity (PSR sort gate)": "low polyreactivity"},
      {"sequence": "QVQLVESGGGLVQAGGSLRLSCAASGSTFYYYAMGWYRQAPGKEREFVAAISWGGGSTRYADSVKGRFTISRDNAKNTVYLQMNSLKPEDTAVYYCAARYPHYDYYYWGQGTQVTVSS", "polyreactivity (PSR sort gate)": "high polyreactivity"},
      {"sequence": "QVQLVESGGGLVQAGGSLRLSCAASGRIFVDNAMGWYRQAPGKESELVADITSGGSTYYADSVKGRFTISRDNAKNTVYLQMNSLKPEDTAVYYCAADYRVSSDYRYDYWGQGTQVTVSS", "polyreactivity (PSR sort gate)": "low polyreactivity"},
      {"sequence": "QVQLVESGGGLVQAGGSLRLSCAASGSIFESYVMGWYRQAPGKERELVAAISSGGSTYYADSVKGRFTISRDNAKNTVYLQMNSLKPEDTAVYYCAANYDGGYLDYEAGYRLEYDYWGQGTQVTVSS", "polyreactivity (PSR sort gate)": "low polyreactivity"},
      {"sequence": "QVQLVESAGGLVQAGGSLRLSCPASGRTSVINAMGWYRQSPGKERELVAAISSDGITNYADSVKGRFTISRDNAKNTVYLQMISLKPEDTAVYYCAAEWYYVYIAPYDYWGQGTQVTVSS", "polyreactivity (PSR sort gate)": "low polyreactivity"},
      {"sequence": "QVQLVESGGGLVQAGGSLRLSCAASGSIISNYVMGWYRQAPGKERELDAAITRRGGRTYYADSVKGRFTISRDNAKNTVYLQMNSLKPEDTAVYYCAAEGYVYTFWDSTDFDYWGQGTQVTVSS", "polyreactivity (PSR sort gate)": "high polyreactivity"},
      {"sequence": "QVQLVESGGGLVQAGGSLRLSCASSGSIFFLYTMGWYRQAPGKERELVAAIDSGGSTNYADSVKGRFTISRDNAKNTVYLQMNSLKPEDTAVYYCNADGGYYYPYRGYHKYYYWGQGTQVTVSS", "polyreactivity (PSR sort gate)": "low polyreactivity"},
      {"sequence": "QDQLVESGGGLVQAGGSLRLRCAASGSILWYYAMGWYRQAPGKERELVASISYSGGSTYYADSVKGRFTISRDNAKNTVYLQMNSLKPEDTAVYYCNADTITYQGYDYGYWGQGTQVTVSS", "polyreactivity (PSR sort gate)": "low polyreactivity"},
      {"sequence": "QVQLGESGGGLVQAGGSLRLSCAASGSTFAPYAMGWYRQAPGKERELVAAISTGGSTNYADSVKGRFTISRDNAMNTVYFQMNSLKPEDTAVYYCNTGYFVWGFDYWGQGTQVTVSS", "polyreactivity (PSR sort gate)": "low polyreactivity"},
      {"sequence": "QVQHVESGGGLVQAGASLRLSCAASGFIFPSYVKGWYRQAPWKERDLVATISRSGGSTYYADSVKGRFTISRDNAKNTVYLQMNSLKPEDTAVYYCAAYPYSYLQLMDYWGQGTQVTVSS", "polyreactivity (PSR sort gate)": "high polyreactivity"},
      {"sequence": "QVQRVESGGGLVQAGGSLRLSCAASGITFWGYAMGWYRQAPGKDREFVARINWSGGRTYYAESVKGRFRISRDNAKNTVYLQMNSLKPEDTAVYYCNVVLRSVVSGDYWGQGTQVTVSS", "polyreactivity (PSR sort gate)": "high polyreactivity"},
      {"sequence": "QVQLVESGGGLVQAGGSLRLSCAASGSTFYVNVMGWYRQAPGKERELVADISNDGSTHYADSVKGRFTISRDTAKNTVYLQMNSLKPEDTAVYYCNAEEIDEASYAYPPLEYDYWGQGTQVTVSS", "polyreactivity (PSR sort gate)": "low polyreactivity"},
      {"sequence": "QVQLVESGGGLVQAGGSLRLSCGASGRIFTRYAMGWYRQAPGKERELVAAISYGGGGTYYADSVKGRFTISRDNAKNTVYLQINSLKPEDTAVYYCATDDPLSQINEQCMDYWGQGTQVTVSS", "polyreactivity (PSR sort gate)": "low polyreactivity"},
      {"sequence": "QLQLVESGGGLVQAGGSLRLSCAASGSTFDYNAKGWYRQAPGKERELVAAITSTGGNTYYADSVKGRFTIARDNAKNSVYIQMNSLKQEDTAVYYCNKDVARYPYGKCDYWGQGTQVTVSS", "polyreactivity (PSR sort gate)": "low polyreactivity"},
      {"sequence": "QDQLVESGGGLVQAGGSLRLSCAASGSNFPTNAMGWYRPAPGKERELVADITIRGGGTSYADSVKGRFTISRDNAKNTVYLHMNSLKPEDTAFYYCARSKSTELKRLLFDSWGQGTQVTVSS", "polyreactivity (PSR sort gate)": "low polyreactivity"},
      {"sequence": "QVQLVESGGGLVQAGGSLRLSCAASGITFPGNAMGWYIQAPGKERELVAVISSGTSTNYADSVKGRFTISRDNAMNTVYLQMNSLKPEDTAVYYCATSLYYYPYYYWGQGTQVTVSS", "polyreactivity (PSR sort gate)": "low polyreactivity"},
      {"sequence": "QVQLVESGGGLVQAGGSLRLSCAASGSTFSHNAMGWSIQAPWKERELLASISSGANTYYADSVKGRFTISRDNAKNTVYLHMNSLKPEVTAVYYCAAGAHAYDHYSWFYFRMHYWGQGTQVTVSS", "polyreactivity (PSR sort gate)": "low polyreactivity"}
    ]}
  ]
}
